According to paper PMC7803741 (2021):
Where two headings read alike, the source gives them in different places.

What was measured:
Test in all cases: ITC
[1] = target: T1, GABAAR-associated protein (GABARAP) (mouse, UniProt Q9DCD6 1-117)
GABARAPL2 = GABARAPL2 (mouse, UniProt P60521 1-117)
LC3B = LC3B (mouse, UniProt Q9CQV6 1-120)
LC3A = LC3A (mouse, UniProt Q91VR7 1-121)
GABARAP K24E = GABARAP K24E (mouse, UniProt Q9DCD6 1-117, K24E)
GABARAP E17A = GABARAP E17A (mouse, UniProt Q9DCD6 1-117, E17A)
GABARAP K66E = GABARAP K66E (mouse, UniProt Q9DCD6 1-117, K66E)
[2] = target: T1, GABAAR-associated protein (GABARAP); remark: listed apart in the source

T1 sequence (Q9DCD6 whole entry): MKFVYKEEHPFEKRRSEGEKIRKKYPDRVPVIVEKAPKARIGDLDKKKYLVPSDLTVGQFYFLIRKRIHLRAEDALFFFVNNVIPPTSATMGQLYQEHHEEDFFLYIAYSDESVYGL
Sequence of GABARAP E17A (Q9DCD6 whole entry E17A): as the sequence (Q9DCD6 whole entry) above, with E17A counted along it
Sequence of GABARAP K24E (Q9DCD6 whole entry K24E): as the sequence (Q9DCD6 whole entry) above, with K24E counted along it
Sequence of GABARAP K66E (Q9DCD6 whole entry K66E): as the sequence (Q9DCD6 whole entry) above, with K66E counted along it
Sequence of GABARAPL2 (P60521 whole entry): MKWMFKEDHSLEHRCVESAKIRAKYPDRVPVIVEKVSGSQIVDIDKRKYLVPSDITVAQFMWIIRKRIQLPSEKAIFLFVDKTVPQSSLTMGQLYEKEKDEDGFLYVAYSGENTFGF

**Q.** For PEDDWTEFSSEEIREARQAAASHAPS [AnkG-WT peptide], which Kd [1] is on record?
**A.** Its Kd is 0.007 µM.

**Q.** Which Kd [1] does the source give for PEDDWTRFSSEEIREARQAAASHAPS [AnkG-ER peptide] here?
**A.** The Kd was 0.007 µM.

**Q.** Which results are given for ERDEEYGYECLDGKDCAS [GABAAR γ2 subunit GIM (GABARAP interacting motif, 398–415)]?
**A.** Kd (GABARAPL2): > 200 µM; Kd (LC3B): > 300 µM; Kd (LC3A): > 300 µM; Kd [1]: 6.8 µM; Kd (GABARAP K24E): > 100 µM; Kd (GABARAP E17A): 6.8 µM; Kd (GABARAP K66E): 23.6 µM

**Q.** With PAPTIDIRPRSATIQMNNATHLQERDEEYGYECLDGKDCASFFCCFEDCR (domain or fragment) [GABAA receptor γ2 subunit 375-424] as the binder, how does the Kd [2] read?
**A.** Its Kd is 5.1 µM.

**Q.** Which Kd [1] does the source give for VEEERVIVSDEEIEEARQKAPLEITEY [AnkB-WR peptide] here?
**A.** The Kd was over 100 µM.
